According to patent US20220145343A1 (priority 2019, published 2022):

Experiments:
[1] = target: NmSiaDW α2-6-sialyltransferase activity (Neisseria meningitidis, UniProt O33390); assay: Enzyme kinetics by varying CMP-Neu5Ac concentrations, fixed acceptor G2 or G10; type: biochemical; conditions: apparent, fixed acceptor 1 mM (row names the acceptor)
Experimental: Enzyme kinetics by varying donor concentrations. For varying UDP-Gal concentrations, reactions were performed in duplicate at 30° C. for 10 minutes in the presence of MES buffer (100 mM, pH 6.5), MgCl2 (10 mM), S3 or S9 (2 mM), UDP-Gal (0.1, 0.2, 0.5, 1.0, 2.0, 5.0 and 10.0 mM), and NmSiaDW (0.025 μM for S3, 0.031 μM for S9) in a total volume of 20 μL. For varying CMP-Neu5Ac concentrations, reactions were performed in duplicate at 30° C. for 10 minutes in the presence of Tris-HCl buffer (100 mM, pH 8.0), MgCl2 (10 mM), G2 or G10 (1 mM), CMP-Neu5Ac (0.2, 0.5, 1.0, 2.0, 5.0 and 10.0 mM), and NmSiaDW (0.025 μM for G2, 0.062 μM for G10) in a total volume of 20 μL. Data analyses were carried out as described above.
NmSiaDW kinetics studies where the concentrations of the donors were also conducted, using a fixed concentration of a representative short or long acceptor substrate. S3 or S9 was used as the acceptor substrate for varying the concentration of UDP-Gal and G2 or G10 was used as the acceptor substrate for varying the concentration of CMP-Neu5Ac. […] The averages of nonlinear regression standard errors from technical duplicates are shown.

[2] = target: NmSiaDW sialyltransferase activity (Neisseria meningitidis, UniProt O33390); conditions: apparent; varying acceptor, 10 mM CMP-Neu5Ac, pH 8.0, 30° C.
[3] = system: CC(=O)N[C@H]1[C@H]([C@H](O)[C@H](O)CO)O[C@@](OCCCNC(=O)OCc2ccccc2)(C(=O)O)C[C@@H]1O[C@H]1O[C@H](CO[C@]2(C(=O)O)C[C@H](O)[C@@H](NC(C)=O)[C@H]([C@H](O)[C@H](O)CO)O2)[C@H](O)[C@H](O)[C@H]1O; assay: purified protein, by the assay type; conditions: other: apparent, varying acceptor, 2 mM UDP-Gal, pH 6.5, 30° C.
[4] = system: CC(=O)N[C@H]1[C@H]([C@H](O)[C@H](O)CO)O[C@@](OCCCNC(=O)OCc2ccccc2)(C(=O)O)C[C@@H]1O[C@H]1O[C@H](CO[C@]2(C(=O)O)C[C@H](O[C@H]3O[C@H](CO[C@]4(C(=O)O)C[C@H](O)[C@@H](NC(C)=O)[C@H]([C@H](O)[C@H](O)CO)O4)[C@H](O)[C@H](O)[C@H]3O)[C@@H](NC(C)=O)[C@H]([C@H](O)[C@H](O)CO)O2)[C@H](O)[C@H](O)[C@H]1O; assay: purified protein, by the assay type; conditions: other: apparent, varying acceptor, 2 mM UDP-Gal, pH 6.5, 30° C.
[5] = system: CC(=O)N[C@H]1[C@H]([C@H](O)[C@H](O)CO)O[C@@](OCCCNC(=O)OCc2ccccc2)(C(=O)O)C[C@@H]1O; assay: purified protein, by the assay type; conditions: other: apparent, varying acceptor, 2 mM UDP-Gal, pH 6.5, 30° C.
[6] = system: CC(=O)N[C@H]1[C@H]([C@H](O)[C@H](O)CO)O[C@@](OCCCNC(=O)OCc2ccccc2)(C(=O)O)C[C@@H]1O[C@H]1O[C@H](CO)[C@H](O)[C@H](O)[C@H]1O; assay: purified protein, by the assay type; conditions: other: apparent, varying acceptor, 10 mM CMP-Neu5Ac, pH 8.0, 30° C.
[7] = system: CC(=O)N[C@H]1[C@H]([C@H](O)[C@H](O)CO)O[C@@](OC[C@H]2O[C@H](O[C@H]3C[C@](OCCCNC(=O)OCc4ccccc4)(C(=O)O)O[C@@H]([C@H](O)[C@H](O)CO)[C@@H]3NC(C)=O)[C@H](O)[C@@H](O)[C@H]2O)(C(=O)O)C[C@@H]1O[C@H]1O[C@H](CO)[C@H](O)[C@H](O)[C@H]1O; assay: purified protein, by the assay type; conditions: other: apparent, varying acceptor, 10 mM CMP-Neu5Ac, pH 8.0, 30° C.
[8] = system: CC(=O)N[C@H]1[C@H]([C@H](O)[C@H](O)CO)O[C@@](OC[C@H]2O[C@H](O[C@H]3C[C@](OC[C@H]4O[C@H](O[C@H]5C[C@](OCCCNC(=O)OCc6ccccc6)(C(=O)O)O[C@@H]([C@H](O)[C@H](O)CO)[C@@H]5NC(C)=O)[C@H](O)[C@@H](O)[C@H]4O)(C(=O)O)O[C@@H]([C@H](O)[C@H](O)CO)[C@@H]3NC(C)=O)[C@H](O)[C@@H](O)[C@H]2O)(C(=O)O)C[C@@H]1O[C@H]1O[C@H](CO)[C@H](O)[C@H](O)[C@H]1O; assay: purified protein, by the assay type; conditions: other: apparent, varying acceptor, 10 mM CMP-Neu5Ac, pH 8.0, 30° C.
[9] = system: CC(=O)N[C@H]1[C@H]([C@H](O)[C@H](O)CO)O[C@@](OC[C@H]2O[C@H](O[C@H]3C[C@](OC[C@H]4O[C@H](O[C@H]5C[C@](OC[C@H]6O[C@H](O[C@H]7C[C@](OCCCNC(=O)OCc8ccccc8)(C(=O)O)O[C@@H]([C@H](O)[C@H](O)CO)[C@@H]7NC(C)=O)[C@H](O)[C@@H](O)[C@H]6O)(C(=O)O)O[C@@H]([C@H](O)[C@H](O)CO)[C@@H]5NC(C)=O)[C@H](O)[C@@H](O)[C@H]4O)(C(=O)O)O[C@@H]([C@H](O)[C@H](O)CO)[C@@H]3NC(C)=O)[C@H](O)[C@@H](O)[C@H]2O)(C(=O)O)C[C@@H]1O[C@H]1O[C@H](CO)[C@H](O)[C@H](O)[C@H]1O; assay: purified protein, by the assay type; conditions: other: apparent, varying acceptor, 10 mM CMP-Neu5Ac, pH 8.0, 30° C.
[10] = system: CC(=O)N[C@H]1[C@H]([C@H](O)[C@H](O)CO)O[C@@](OC[C@H]2O[C@H](O[C@H]3C[C@](OC[C@H]4O[C@H](O[C@H]5C[C@](OC[C@H]6O[C@H](O[C@H]7C[C@](OC[C@H]8O[C@H](O[C@H]9C[C@](OCCCNC(=O)OCc%10ccccc%10)(C(=O)O)O[C@@H]([C@H](O)[C@H](O)CO)[C@@H]9NC(C)=O)[C@H](O)[C@@H](O)[C@H]8O)(C(=O)O)O[C@@H]([C@H](O)[C@H](O)CO)[C@@H]7NC(C)=O)[C@H](O)[C@@H](O)[C@H]6O)(C(=O)O)O[C@@H]([C@H](O)[C@H](O)CO)[C@@H]5NC(C)=O)[C@H](O)[C@@H](O)[C@H]4O)(C(=O)O)O[C@@H]([C@H](O)[C@H](O)CO)[C@@H]3NC(C)=O)[C@H](O)[C@@H](O)[C@H]2O)(C(=O)O)C[C@@H]1O[C@H]1O[C@H](CO)[C@H](O)[C@H](O)[C@H]1O; assay: purified protein, by the assay type; conditions: other: apparent, varying acceptor, 10 mM CMP-Neu5Ac, pH 8.0, 30° C.

NmSiaDW α2-6-sialyltransferase activity, sequence (O33390 1-1037): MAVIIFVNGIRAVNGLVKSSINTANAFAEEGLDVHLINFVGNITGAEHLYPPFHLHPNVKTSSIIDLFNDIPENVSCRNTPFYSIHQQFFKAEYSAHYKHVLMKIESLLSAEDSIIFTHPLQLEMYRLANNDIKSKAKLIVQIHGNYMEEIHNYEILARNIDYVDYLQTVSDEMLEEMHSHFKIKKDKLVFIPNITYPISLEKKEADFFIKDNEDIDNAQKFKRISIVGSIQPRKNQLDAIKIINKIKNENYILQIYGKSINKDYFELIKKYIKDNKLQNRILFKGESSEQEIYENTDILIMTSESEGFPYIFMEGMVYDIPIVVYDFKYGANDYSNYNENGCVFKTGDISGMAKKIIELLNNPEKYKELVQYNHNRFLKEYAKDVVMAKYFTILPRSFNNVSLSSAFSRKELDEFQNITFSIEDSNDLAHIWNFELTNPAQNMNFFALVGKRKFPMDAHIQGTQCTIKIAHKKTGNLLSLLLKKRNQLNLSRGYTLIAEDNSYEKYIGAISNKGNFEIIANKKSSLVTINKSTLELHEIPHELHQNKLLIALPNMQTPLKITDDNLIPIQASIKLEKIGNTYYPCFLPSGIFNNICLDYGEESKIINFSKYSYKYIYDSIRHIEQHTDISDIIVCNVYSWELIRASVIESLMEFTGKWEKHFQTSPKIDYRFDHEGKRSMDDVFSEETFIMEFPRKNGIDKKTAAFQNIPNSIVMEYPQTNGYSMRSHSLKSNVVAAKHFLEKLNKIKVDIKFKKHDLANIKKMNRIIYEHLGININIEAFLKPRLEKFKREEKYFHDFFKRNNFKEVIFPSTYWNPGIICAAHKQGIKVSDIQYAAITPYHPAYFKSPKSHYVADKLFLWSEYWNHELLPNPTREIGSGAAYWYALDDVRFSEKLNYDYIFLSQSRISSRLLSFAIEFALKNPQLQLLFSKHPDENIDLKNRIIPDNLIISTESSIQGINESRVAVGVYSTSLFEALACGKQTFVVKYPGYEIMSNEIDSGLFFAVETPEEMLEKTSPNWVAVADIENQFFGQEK
NmSiaDW sialyltransferase activity, sequence (O33390 1-1037): as above

Work on CC(=O)N[C@H]1[C@H]([C@H](O)[C@H](O)CO)O[C@@](OCCCNC(=O)OCc2ccccc2)(C(=O)O)C[C@@H]1O[C@H]1O[C@H](CO)[C@H](O)[C@H](O)[C@H]1O [G2, Galα1-4Neu5AcαProNHCbz] yielded a kcat [1] of 7.1 ± 0.2 s⁻¹.

CC(=O)N[C@H]1[C@H]([C@H](O)[C@H](O)CO)O[C@@](OC[C@H]2O[C@H](O[C@H]3C[C@](OC[C@H]4O[C@H](O[C@H]5C[C@](OC[C@H]6O[C@H](O[C@H]7C[C@](OC[C@H]8O[C@H](O[C@H]9C[C@](OCCCNC(=O)OCc%10ccccc%10)(C(=O)O)O[C@@H]([C@H](O)[C@H](O)CO)[C@@H]9NC(C)=O)[C@H](O)[C@@H](O)[C@H]8O)(C(=O)O)O[C@@H]([C@H](O)[C@H](O)CO)[C@@H]7NC(C)=O)[C@H](O)[C@@H](O)[C@H]6O)(C(=O)O)O[C@@H]([C@H](O)[C@H](O)CO)[C@@H]5NC(C)=O)[C@H](O)[C@@H](O)[C@H]4O)(C(=O)O)O[C@@H]([C@H](O)[C@H](O)CO)[C@@H]3NC(C)=O)[C@H](O)[C@@H](O)[C@H]2O)(C(=O)O)C[C@@H]1O[C@H]1O[C@H](CO)[C@H](O)[C@H](O)[C@H]1O [G10, Galα1(-4Neu5Acα2-6Galα1)4-4Neu5AcαProNHCbz] gave a kcat [1] of 6.1 ± 0.2 s⁻¹ and a kcat [2] of 7.03 ± 0.39 s⁻¹.

“NmSiaDW galactosyltransferase activity (Neisseria meningitidis)” gave a Km [3] of 890 ± 100 µM, a kcat [3] of 8.8 ± 0.4 s⁻¹ and a kcat/Km [3] of 10000 M⁻¹ s⁻¹. For the same compound, the Km [4] was 100 ± 20 µM, the kcat [4] was 5.3 ± 0.2 s⁻¹ and the kcat/Km [4] was 51000 M⁻¹ s⁻¹. For the same compound, the kcat/Km [5] was 47 M⁻¹ s⁻¹.

Work on “NmSiaDW sialyltransferase activity (Neisseria meningitidis)” yielded a Km [6] of 180 ± 40 µM, a kcat [6] of 9.76 ± 0.55 s⁻¹ and a kcat/Km [6] of 55000 M⁻¹ s⁻¹. The Km [7] was 240 ± 40 µM, the kcat [7] was 23.1 ± 1.1 s⁻¹ and the kcat/Km [7] was 97000 M⁻¹ s⁻¹. It also gave a kcat [8] of 7.03 to 11.9 s⁻¹, a kcat [9] of 7.03 to 11.9 s⁻¹ and a kcat [10] of 7.03 to 11.9 s⁻¹.
